Source: patent US20050113304A1

Target: Botulinum toxin B (UniProt P10844)
Assay: cell-based or functional assay

Buforin I (peptide) gave an inhibition of BttxB endoprotease activity (cleavage of VAMP2 55-94, RP-HPLC) of 1000 nM.

Buforin II (peptide) was tested, and the inhibition of BttxB activity relative to B-I (% as effective as B-I) was 25.
